Measurements taken from publication PMC9482650, “Quantitative fragmentomics allow affinity mapping of interactomes” (Nature Communications, 2022).

T1: GRIP1_5, Q9Y3R0
T1 sequence (Q9Y3R0 568-668, limits assumed, looked up): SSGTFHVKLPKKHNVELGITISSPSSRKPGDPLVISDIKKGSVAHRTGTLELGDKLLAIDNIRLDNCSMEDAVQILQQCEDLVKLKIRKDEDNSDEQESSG

T2: APBA1_1, Q02410
T2 sequence (Q02410 651-752, limits assumed, looked up): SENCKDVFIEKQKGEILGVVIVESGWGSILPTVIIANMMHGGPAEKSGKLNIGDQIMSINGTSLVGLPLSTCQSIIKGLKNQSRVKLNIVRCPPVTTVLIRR

T3: NHERF3_1, Q5T2W1
T3 sequence (Q5T2W1 4-100, limits assumed, looked up): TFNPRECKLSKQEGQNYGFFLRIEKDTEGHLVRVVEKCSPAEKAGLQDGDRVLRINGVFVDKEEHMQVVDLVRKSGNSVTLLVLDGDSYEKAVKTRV

T4: GRIP1_3, Q9Y3R0
T4 sequence (Q9Y3R0 247-346, limits assumed, looked up): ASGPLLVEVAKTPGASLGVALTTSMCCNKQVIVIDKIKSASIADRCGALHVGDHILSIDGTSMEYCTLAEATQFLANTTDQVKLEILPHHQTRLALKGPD

T5: RHPN1, Q8TCX5
T5 sequence (Q8TCX5 508-602, limits assumed, looked up): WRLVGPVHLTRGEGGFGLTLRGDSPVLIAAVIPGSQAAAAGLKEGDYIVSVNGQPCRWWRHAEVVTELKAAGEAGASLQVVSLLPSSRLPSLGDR

T6: MPP2, Q14168
T6 sequence (Q14168 180-250, limits assumed, looked up): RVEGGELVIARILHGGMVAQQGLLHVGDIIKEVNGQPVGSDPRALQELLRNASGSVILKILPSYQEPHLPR

T7: LNX2_2, Q8N448
T7 sequence (Q8N448 334-432, limits assumed, looked up): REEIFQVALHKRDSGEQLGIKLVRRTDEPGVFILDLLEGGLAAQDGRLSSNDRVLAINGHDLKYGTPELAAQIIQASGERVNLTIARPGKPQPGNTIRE

T8: APBA1_2, Q02410
T8 sequence (Q02410 742-832, limits assumed, looked up): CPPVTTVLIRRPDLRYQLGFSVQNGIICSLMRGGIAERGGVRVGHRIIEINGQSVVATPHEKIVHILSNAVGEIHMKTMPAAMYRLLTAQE

T9: DLG3_1, Q92796
T9 sequence (Q92796 125-227, limits assumed, looked up): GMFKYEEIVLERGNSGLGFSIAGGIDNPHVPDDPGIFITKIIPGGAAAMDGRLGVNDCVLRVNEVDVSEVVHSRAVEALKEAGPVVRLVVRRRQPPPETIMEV

T10: DLG3_3, Q92796
T10 sequence (Q92796 374-475, limits assumed, looked up): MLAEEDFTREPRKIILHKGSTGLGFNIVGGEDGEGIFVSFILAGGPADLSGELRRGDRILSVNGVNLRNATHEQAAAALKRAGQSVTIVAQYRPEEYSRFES

T11: SYNJ2BP, P57105
T11 sequence (P57105 8-110, limits assumed, looked up): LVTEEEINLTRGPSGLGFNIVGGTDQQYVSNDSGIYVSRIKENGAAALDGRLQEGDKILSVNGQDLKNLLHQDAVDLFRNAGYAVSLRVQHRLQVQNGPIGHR

T12: TIAM2, Q8IVF5
T12 sequence (Q8IVF5 885-986, limits assumed, looked up): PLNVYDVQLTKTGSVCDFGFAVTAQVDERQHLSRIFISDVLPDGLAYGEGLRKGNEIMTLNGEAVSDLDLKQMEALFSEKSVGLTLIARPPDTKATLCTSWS


Legend:
Assay in all cases: holdup assay
Set-up in all cases: key: below the threshold = too weak to quantify, mostly under pKd 3.1 to 4
Conditions in all cases: plain residues with an end cap or a label only (N-terminal biotin on a linker: ado-ado)
[1] = molecular target: T1, GRIP1_5, Q9Y3R0
[2] = molecular target: Inadl_8, Q8NI35
[3] = molecular target: DLG4_1, P78352
[4] = molecular target: GRID2IP_2, A4D2P6
[5] = molecular target: GRIP2_5, Q9C0E4
[6] = molecular target: T2, APBA1_1, Q02410
[7] = molecular target: T3, NHERF3_1, Q5T2W1
[8] = molecular target: SNX27, Q96L92
[9] = molecular target: T4, GRIP1_3, Q9Y3R0
[10] = molecular target: T5, RHPN1, Q8TCX5
[11] = molecular target: T6, MPP2, Q14168
[12] = molecular target: NOS1, P29475
[13] = molecular target: MAGI1_1, Q96QZ7
[14] = molecular target: GRIP2_4, Q9C0E4
[15] = molecular target: T7, LNX2_2, Q8N448
[16] = molecular target: T8, APBA1_2, Q02410
[17] = molecular target: T9, DLG3_1, Q92796
[18] = molecular target: T10, DLG3_3, Q92796
[19] = molecular target: PICK1, Q9NRD5
[20] = molecular target: FRMPD2_3, Q68DX3
[21] = molecular target: IL16_3, Q14005
[22] = molecular target: PDLIM1, O00151
[23] = molecular target: T11, SYNJ2BP, P57105
[24] = molecular target: HTRA1, Q92743
[25] = molecular target: T12, TIAM2, Q8IVF5
[26] = molecular target: AHNAK1, Q09666
Chain of AHNAK1, Q09666 (Q09666 4-100): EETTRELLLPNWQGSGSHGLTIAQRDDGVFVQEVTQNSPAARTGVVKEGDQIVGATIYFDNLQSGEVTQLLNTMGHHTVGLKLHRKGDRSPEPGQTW

Chain of PICK1, Q9NRD5 (Q9NRD5 17-115): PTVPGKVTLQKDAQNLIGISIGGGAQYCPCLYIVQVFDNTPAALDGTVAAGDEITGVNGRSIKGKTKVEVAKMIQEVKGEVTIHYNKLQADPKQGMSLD
Chain of FRMPD2_3, Q68DX3 (Q68DX3 1073-1166): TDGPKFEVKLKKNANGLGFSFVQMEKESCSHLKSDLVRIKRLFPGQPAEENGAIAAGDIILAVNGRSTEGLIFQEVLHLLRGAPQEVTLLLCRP
Chain of Inadl_8, Q8NI35 (Q8NI35 1425-1530): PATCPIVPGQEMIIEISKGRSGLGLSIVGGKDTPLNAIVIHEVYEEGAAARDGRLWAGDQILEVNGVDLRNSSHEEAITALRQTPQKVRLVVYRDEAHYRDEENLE
Chain of GRIP2_4, Q9C0E4 (Q9C0E4 446-548): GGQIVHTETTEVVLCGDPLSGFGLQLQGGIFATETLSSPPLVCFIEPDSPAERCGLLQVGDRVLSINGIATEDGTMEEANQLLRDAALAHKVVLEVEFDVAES
Chain of MAGI1_1, Q96QZ7 (Q96QZ7 1-106): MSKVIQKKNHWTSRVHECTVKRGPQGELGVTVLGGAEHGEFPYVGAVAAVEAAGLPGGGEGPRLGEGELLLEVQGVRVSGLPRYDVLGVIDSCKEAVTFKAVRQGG
Chain of IL16_3, Q14005 (Q14005 1107-1207): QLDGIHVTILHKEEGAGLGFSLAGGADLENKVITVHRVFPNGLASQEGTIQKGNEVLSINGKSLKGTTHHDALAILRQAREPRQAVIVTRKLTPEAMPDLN
Chain of HTRA1, Q92743 (Q92743 360-477): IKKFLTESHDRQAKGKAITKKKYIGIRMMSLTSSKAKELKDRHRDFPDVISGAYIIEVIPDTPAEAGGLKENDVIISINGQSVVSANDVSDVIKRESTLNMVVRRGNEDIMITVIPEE
Chain of GRIP2_5, Q9C0E4 (Q9C0E4 544-642): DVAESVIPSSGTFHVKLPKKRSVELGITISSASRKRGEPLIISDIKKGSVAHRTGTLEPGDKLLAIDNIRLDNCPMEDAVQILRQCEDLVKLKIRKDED
Chain of GRID2IP_2, A4D2P6 (A4D2P6 272-370): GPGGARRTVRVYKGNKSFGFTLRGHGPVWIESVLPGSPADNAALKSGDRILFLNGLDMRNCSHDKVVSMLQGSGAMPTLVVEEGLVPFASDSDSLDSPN
Chain of DLG4_1, P78352 (P78352 62-152): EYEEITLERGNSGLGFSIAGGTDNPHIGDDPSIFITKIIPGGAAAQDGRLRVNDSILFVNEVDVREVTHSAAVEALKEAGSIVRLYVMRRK
Chain of NOS1, P29475 (P29475 9-101): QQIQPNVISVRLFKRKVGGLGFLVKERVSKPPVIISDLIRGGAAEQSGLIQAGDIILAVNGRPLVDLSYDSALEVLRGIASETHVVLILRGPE
Chain of PDLIM1, O00151 (O00151 1-87): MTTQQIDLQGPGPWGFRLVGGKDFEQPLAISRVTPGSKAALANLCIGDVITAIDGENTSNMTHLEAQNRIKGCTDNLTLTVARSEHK

Row | Binder | pKd [1] | pKd [2] | pKd [3] | pKd [4] | pKd [5] | pKd [6] | pKd [7] | pKd [8] | pKd [9] | pKd [10] | pKd [11] | pKd [12] | pKd [13] | pKd [14] | pKd [15] | pKd [16] | pKd [17] | pKd [18] | pKd [19] | pKd [20] | other results
1 | TSSMRGMDAV [RSRC2, Q7L4I2] | below the threshold | below the threshold | 3.49 | below the threshold | below the threshold | below the threshold | below the threshold | below the threshold | below the threshold | below the threshold | below the threshold | 4.38 | below the threshold | below the threshold | below the threshold | 3.86 | below the threshold | below the threshold | below the threshold | below the threshold | pKd [21]: below the threshold; pKd [22]: below the threshold; pKd [23]: below the threshold; pKd [24]: below the threshold; pKd [25]: below the threshold; pKd [26]: below the threshold
2 | TLPRKRMSSI [GPRC6A, Q5T6X5] | below the threshold | 3.77 | below the threshold | 3.87 | below the threshold | below the threshold | below the threshold | below the threshold | below the threshold | below the threshold | below the threshold | below the threshold | below the threshold | below the threshold | below the threshold | below the threshold | below the threshold | below the threshold | 4.13 | below the threshold | pKd [21]: below the threshold; pKd [22]: below the threshold; pKd [23]: below the threshold; pKd [24]: below the threshold; pKd [25]: 4.07; pKd [26]: below the threshold
3 | SAAKVLTSMC [GHRHR, Q02643] | below the threshold | 4.06 | below the threshold | 4.38 | below the threshold | below the threshold | 3.94 | 5.16 | below the threshold | 4.06 | below the threshold | below the threshold | below the threshold | below the threshold | below the threshold | below the threshold | below the threshold | below the threshold | below the threshold | below the threshold | pKd [21]: below the threshold; pKd [22]: below the threshold; pKd [23]: 3.59; pKd [24]: 3.55; pKd [25]: below the threshold; pKd [26]: below the threshold
4 | QSPANIYYKV [EFNB1, P52799] | below the threshold | below the threshold | below the threshold | below the threshold | below the threshold | below the threshold | below the threshold | below the threshold | below the threshold | below the threshold | below the threshold | below the threshold | below the threshold | below the threshold | 4.25 | below the threshold | below the threshold | below the threshold | below the threshold | below the threshold | pKd [21]: below the threshold; pKd [22]: below the threshold; pKd [23]: below the threshold; pKd [24]: 4.37; pKd [25]: 4.1; pKd [26]: below the threshold
